We go through nine molecules from patent US20240287501A1 (VIB VZW, published 2024).

Assay [1] addresses T1, BMH1 (native, from EBY100 lysate) (Saccharomyces cerevisiae, UniProt P29311 2-267).
T1 construct: mature; Endogenous untagged protein; also called YER177W
T1 sequence (looked up): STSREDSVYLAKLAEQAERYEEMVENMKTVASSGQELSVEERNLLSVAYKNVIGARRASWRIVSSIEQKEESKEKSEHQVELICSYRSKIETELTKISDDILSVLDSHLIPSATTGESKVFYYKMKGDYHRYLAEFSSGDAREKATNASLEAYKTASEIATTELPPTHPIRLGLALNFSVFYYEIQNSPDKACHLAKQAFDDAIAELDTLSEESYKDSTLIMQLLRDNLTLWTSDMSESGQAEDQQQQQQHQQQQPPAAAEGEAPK
In words: co-IP, Nb on NHS-agarose beads, EBY100 yeast lysate, SDS-PAGE.

Another assay deals with T2, GFP-tagged BMH1 (Saccharomyces cerevisiae, UniProt P29311 2-267).
T2 construct: Yeast GFP Fusion Collection strain; also called Yeast GFP fusion collection GFP(+)27, D5; not shown: GFP tag
T2 sequence (looked up): T1 sequence (looked up)
In words: co-immunoprecipitation, Nb coupled to NHS-agarose beads, lysate of the yeast strain expressing the GFP-tagged target, Western blot anti-GFP. On the procedure: One SIS1-specific Nanobody (44=Nb clone CA17444 corresponding to SEQ ID NO: 9), three ALD6-specific Nanobodies (53=CA17453-SEQ ID NO: 10, 54=CA17454-SEQ ID NO: 11, 60=CA17460-SEQ ID NO: 12), two BMH1-specific Nanobodies (58=CA17458-SEQ ID NO: 13, 59=CA17459-SEQ ID NO: 14) were characterized by co-immunoprecipitation assays. Each target-specific Nanobodies was covalently linked to NHS-agarose beads. The beads that were functionalized with these target-specific Nanobodies were incubated for an hour at 4° C. on a rotating device with either an EBY100 lysate or the lysate of the engineered Yeast strain expressing the target (Yeast GFP fusion collection reference for SIS1: GFP(+)22, E5, for ALD6: GFP(+)15, F1, for BMH1: GFP(+)27, D5) as a GFP-tagged protein. After washing, these beads were resuspended in SDS-PAGE loading dye and analyzed on SDS-PAGE (FIG. 8A). Separated proteins were transferred to a PVDF membrane and the Western blot (FIG. 8B) was developed with GFP-specific antibody to confirm the presence of GFP-tagged targets.

Assay [2] concerns the target T3, SSA1 (native, from EBY100 lysate) (Saccharomyces cerevisiae, UniProt P10591 2-642).
T3 construct: mature; Endogenous untagged protein; also called YAL005C
In words: co-IP, Nb on NHS-agarose beads, EBY100 yeast lysate, SDS-PAGE.

In the next assay the target is T4, GFP-tagged SSA1 (Saccharomyces cerevisiae, UniProt P10591 2-642).
T4 construct: Yeast GFP Fusion Collection strain; also called Yeast GFP fusion collection GFP(+)10, E4; not shown: GFP tag
T4 sequence (P10591 2-642): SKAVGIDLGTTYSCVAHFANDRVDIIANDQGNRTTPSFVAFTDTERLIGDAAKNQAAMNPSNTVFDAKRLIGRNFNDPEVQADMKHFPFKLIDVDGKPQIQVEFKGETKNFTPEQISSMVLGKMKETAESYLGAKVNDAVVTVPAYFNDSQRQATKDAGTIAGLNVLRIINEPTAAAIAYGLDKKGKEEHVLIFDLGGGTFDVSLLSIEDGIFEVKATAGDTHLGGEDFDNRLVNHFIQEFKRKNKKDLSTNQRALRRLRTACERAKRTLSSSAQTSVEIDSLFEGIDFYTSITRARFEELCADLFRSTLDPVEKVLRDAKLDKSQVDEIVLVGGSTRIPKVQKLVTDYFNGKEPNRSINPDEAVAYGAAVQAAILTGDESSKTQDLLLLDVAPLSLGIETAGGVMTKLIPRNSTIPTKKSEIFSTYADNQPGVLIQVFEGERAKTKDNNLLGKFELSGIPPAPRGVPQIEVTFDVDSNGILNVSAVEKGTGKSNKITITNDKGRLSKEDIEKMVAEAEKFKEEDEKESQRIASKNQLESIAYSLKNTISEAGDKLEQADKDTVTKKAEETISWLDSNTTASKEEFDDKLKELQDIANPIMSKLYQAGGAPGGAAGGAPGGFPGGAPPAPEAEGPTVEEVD
The assay can be described thus: co-immunoprecipitation, Nb coupled to NHS-agarose beads, lysate of the yeast strain expressing the GFP-tagged target, SDS-PAGE. As to the method: (§1) Six SSA1-specific Nanobodies (60=Nb clone CA17560 corresponding to SEQ ID NO: 19, 61=CA17561-SEQ ID NO: 20, 62=CA17562-SEQ ID NO: 21, 63=CA17563-SEQ ID NO: 22, 64=CA17564-SEQ ID NO: 23, 65=CA17565-SEQ ID NO: 24) were characterized by co-immunoprecipitation assays. Each SSA1-specific Nanobodies was covalently linked to NHS-agarose beads. The beads that were functionalized with these SSA1-specific Nanobodies were incubated for an hour at 4° C. on a rotating device with either an EBY100 lysate or the lysate of the engineered Yeast strain expressing SSA1 (Yeast GFP fusion collection reference: GFP(+)10, E4) as a GFP-tagged protein. After washing, these beads were resuspended in SDS-PAGE loading dye and analyzed on SDS-PAGE (FIG. 6A). Separated proteins were transferred to a PVDF membrane and the Western blot (FIG. 6B) was developed with GFP-specific antibody to confirm the presence of GFP-tagged SSA1.

The target in a further assay is T5, GFP-tagged SBA1 (Saccharomyces cerevisiae, UniProt P28707 2-216).
T5 construct: Yeast GFP Fusion Collection strain; also called Yeast GFP fusion collection GFP(+)30, A6; YKL117W; not shown: GFP tag
T5 sequence (looked up): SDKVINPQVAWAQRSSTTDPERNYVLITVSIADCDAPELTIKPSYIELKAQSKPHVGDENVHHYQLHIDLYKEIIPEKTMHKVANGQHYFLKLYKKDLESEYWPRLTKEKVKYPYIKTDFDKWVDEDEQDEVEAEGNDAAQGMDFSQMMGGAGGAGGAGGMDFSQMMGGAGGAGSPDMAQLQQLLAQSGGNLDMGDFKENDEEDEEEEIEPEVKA
In words: co-immunoprecipitation, Nb coupled to NHS-agarose beads, lysate of the yeast strain expressing the GFP-tagged target, Western blot anti-GFP. The source says:
(§2) One HSP104-specific Nanobody (04=CA18504 SEQ ID NO:40), one MET6-specific Nanobody (05=CA18505 SEQ ID NO:41), two SBA1-specific Nanobodies (08=Nb clone CA18508 corresponding to SEQ ID NO:42, 09=CA18509-SEQ ID NO:43), one SOD1-specific Nanobody (10=CA18510-SEQ ID NO:44), and a ENO1-specific Nanobody (38=CA17938-SEQ ID NO:45), were characterized by co-immunoprecipitation assays. Each POI-specific Nanobodies was covalently linked to NHS-agarose beads. The beads that were functionalized with these POI-specific Nanobodies were incubated for an hour at 4° C. on a rotating device with the lysate of the engineered Yeast strain expressing the POIs (Yeast GFP fusion collection reference: GFP(+)05, A2 (HSP104); GFP(+)07, D4 (MET6); GFP(+)30, A6 (SBA1); GFP(+)33, F8 (SOD1) and GFP(+)17, D12 (ENO1) as a GFP-tagged protein. After washing, these beads were analyzed on SDS-PAGE (not shown) and Western blot was developed with GFP-specific antibody to confirm the presence of GFP-tagged POIs.

Assay [3] has as its target T3, SSA1 (native, from EBY100 lysate). In words: co-immunoprecipitation, Nb coupled to NHS-agarose beads, EBY100 yeast lysate (native target), SDS-PAGE. On the procedure:
as §1

For the next assay, the target named is T6, GFP-tagged MET6 (Saccharomyces cerevisiae, UniProt P05694 2-767).
T6 construct: Yeast GFP Fusion Collection strain; also called Yeast GFP fusion collection GFP(+)07, D4; YER091C; not shown: GFP tag
T6 sequence (looked up): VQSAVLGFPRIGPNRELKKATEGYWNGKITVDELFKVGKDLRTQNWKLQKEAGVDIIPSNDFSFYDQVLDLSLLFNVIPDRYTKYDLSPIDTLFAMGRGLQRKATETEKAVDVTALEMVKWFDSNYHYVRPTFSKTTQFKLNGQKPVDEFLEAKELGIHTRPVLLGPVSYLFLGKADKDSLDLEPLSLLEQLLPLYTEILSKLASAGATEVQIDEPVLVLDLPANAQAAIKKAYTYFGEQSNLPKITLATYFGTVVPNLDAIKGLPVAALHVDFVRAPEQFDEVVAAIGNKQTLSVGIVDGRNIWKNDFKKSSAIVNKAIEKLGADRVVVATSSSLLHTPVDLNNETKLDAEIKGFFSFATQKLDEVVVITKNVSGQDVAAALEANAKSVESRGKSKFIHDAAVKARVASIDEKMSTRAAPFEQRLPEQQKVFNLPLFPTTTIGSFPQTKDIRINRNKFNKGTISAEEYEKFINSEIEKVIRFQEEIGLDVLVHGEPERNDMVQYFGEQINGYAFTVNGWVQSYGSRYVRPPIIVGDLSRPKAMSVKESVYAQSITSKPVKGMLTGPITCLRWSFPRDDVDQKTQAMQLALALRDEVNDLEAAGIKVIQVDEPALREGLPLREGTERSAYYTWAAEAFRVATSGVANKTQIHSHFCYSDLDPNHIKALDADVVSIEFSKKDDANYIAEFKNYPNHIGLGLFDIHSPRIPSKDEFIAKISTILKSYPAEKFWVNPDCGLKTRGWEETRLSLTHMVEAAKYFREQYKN
In words: co-immunoprecipitation, Nb coupled to NHS-agarose beads, lysate of the yeast strain expressing the GFP-tagged target, Western blot anti-GFP.
From the text: as §2

For another assay, the target named is T7, GFP-tagged HSP104 (Saccharomyces cerevisiae, UniProt P31539 1-908).
T7 construct: Yeast GFP Fusion Collection strain; also called Yeast GFP fusion collection GFP(+)05, A2; YLL026W; not shown: GFP tag
T7 sequence (P31539 whole entry, the tested form may be a part): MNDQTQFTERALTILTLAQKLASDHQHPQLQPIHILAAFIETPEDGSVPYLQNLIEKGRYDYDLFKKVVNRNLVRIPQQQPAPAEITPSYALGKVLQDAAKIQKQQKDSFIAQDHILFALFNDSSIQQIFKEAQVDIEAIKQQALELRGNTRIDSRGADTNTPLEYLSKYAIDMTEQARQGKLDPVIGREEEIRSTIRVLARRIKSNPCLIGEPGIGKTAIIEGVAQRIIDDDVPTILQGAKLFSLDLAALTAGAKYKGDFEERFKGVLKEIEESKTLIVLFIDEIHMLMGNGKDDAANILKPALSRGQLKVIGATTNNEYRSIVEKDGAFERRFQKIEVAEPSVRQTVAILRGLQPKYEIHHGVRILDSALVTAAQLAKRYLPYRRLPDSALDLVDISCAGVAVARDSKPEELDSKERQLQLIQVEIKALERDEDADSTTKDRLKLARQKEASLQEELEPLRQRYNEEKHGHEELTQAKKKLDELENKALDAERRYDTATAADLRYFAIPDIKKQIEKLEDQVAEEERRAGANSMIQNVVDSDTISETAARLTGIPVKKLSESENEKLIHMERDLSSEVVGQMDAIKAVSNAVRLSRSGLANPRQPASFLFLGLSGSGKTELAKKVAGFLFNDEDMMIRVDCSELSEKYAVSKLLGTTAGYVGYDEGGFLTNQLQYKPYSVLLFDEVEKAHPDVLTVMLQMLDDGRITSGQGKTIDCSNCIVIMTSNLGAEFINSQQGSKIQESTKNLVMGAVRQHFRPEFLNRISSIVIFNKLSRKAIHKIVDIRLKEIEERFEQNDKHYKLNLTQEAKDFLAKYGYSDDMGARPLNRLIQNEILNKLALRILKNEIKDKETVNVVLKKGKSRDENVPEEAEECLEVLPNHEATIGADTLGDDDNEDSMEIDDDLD
The assay is described as above.
From the text: as §2

The next assay addresses T8, GFP-tagged SOD1 (Saccharomyces cerevisiae, UniProt P00445 2-154).
T8 construct: Yeast GFP Fusion Collection strain; also called Yeast GFP fusion collection GFP(+)33, F8; YJR104C; not shown: GFP tag
T8 sequence (looked up): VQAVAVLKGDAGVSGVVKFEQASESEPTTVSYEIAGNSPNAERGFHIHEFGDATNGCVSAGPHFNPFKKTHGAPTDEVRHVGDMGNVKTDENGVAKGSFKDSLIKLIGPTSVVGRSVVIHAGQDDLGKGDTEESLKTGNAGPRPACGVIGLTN
Described as above.
From the text: as §2

The target in another assay is T9, GFP-tagged ENO1 (Saccharomyces cerevisiae, UniProt P00924 2-437).
T9 construct: Yeast GFP Fusion Collection strain; also called Yeast GFP fusion collection GFP(+)17, D12; YGR254W; not shown: GFP tag
T9 sequence (P00924 2-437): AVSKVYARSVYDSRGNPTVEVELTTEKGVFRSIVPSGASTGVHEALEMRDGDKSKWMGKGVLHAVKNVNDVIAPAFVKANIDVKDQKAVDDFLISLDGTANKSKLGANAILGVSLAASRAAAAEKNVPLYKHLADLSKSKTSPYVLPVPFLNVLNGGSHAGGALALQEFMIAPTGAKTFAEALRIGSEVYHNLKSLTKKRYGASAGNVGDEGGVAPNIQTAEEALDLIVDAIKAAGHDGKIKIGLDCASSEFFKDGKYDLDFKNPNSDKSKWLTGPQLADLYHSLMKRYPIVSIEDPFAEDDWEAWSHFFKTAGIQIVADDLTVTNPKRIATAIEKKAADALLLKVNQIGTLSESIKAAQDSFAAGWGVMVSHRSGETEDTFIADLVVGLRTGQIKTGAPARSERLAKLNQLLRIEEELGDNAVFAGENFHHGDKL
Described as above.
From the text: as §2

T3 sequence (P10591 2-642): as the sequence (P10591 2-642) above

B1: CA17458 (VHH)
VHH: QVQLVESGGGLVQPGGSLRLSCAASGTTLSLRRVGWYRQAPGKQRDLVATLTSGGETSYADSVKGRFTISRDNAKNTVYLQMNSLKLEDTAVYYCNAINWPMDYWGQGTQVTVSS
notes: C-terminal 6xHis-EPEA tag is part of the entry
Regarding B1, the binding result (in assay [1]; in the assay with GFP-tagged BMH1) was “binds” in each case.

B2: CA17561 (VHH)
VHH: QVQLVESGGGLVQAGGSLRLSCAASTRTFSNYVMAWFRQAPGKEREFVGAINWSGGTEYYADSVKGRFTISRDNAKNTVYLQMNDLNPEDTANYYCAARRGTIARTALVKYLEYDYWGQGTQVTVSS
notes: as for B1
With B2, the binding result (in assay [2]; in the assay with GFP-tagged SSA1) was “binds” in each case.

B3: CA18509 (VHH)
VHH: QVQLVESGGGLVQPGGSLRLSCAAAGFTFRMLDMSWYRQAPGKERELVATITSVSGTTNYADSVKGRVTISRDNAKNTVYLQMNSLKPEDTAVYYCNARMAAWGLDYWGQGTQVTVSS
notes: as for B1
Consider B3, for which the binding result with GFP-tagged SBA1 was “binds”.

B4: CA18508 (VHH)
VHH: QVQLVESGGGLVQPGGSLRLSCAASGFTFSNTAMSWYRQAPGKERELVAVSTSAGGGTDYADSVQGRFTISRDNAKNTVYLQMNDLKPEDTAVYYCYAVGRYRSSWRLLPFGSWGQGTQVTVSS
notes: as for B1
Take B4: the binding result with GFP-tagged SBA1 is reported as “binds”.

B5: CA17560 (VHH)
VHH: QVQLVESGGGLVHSGGSLRLSCVASGGAFNDYTMGWFRQAPGKERQFVAAITWSSGVTSYSDSVRGRFVISRDIAKNTVYLQMNSLNPEETAVYVCAARLGVSSSPNSQISHRYDYWGQGTQVTVSS
notes: as for B1
As to B5, the binding result (in assay [3]; with GFP-tagged SSA1) was “binds” each time.

B6: CA18505 (VHH)
VHH: QVQLVESGGGLVQPGGSLRLSCAASGSIFSINAWGWYRQAPGKERELVAVITSVGGRTNYADSVKGRFTISRDNAKDMVYLQMNSLKPEDTAVYYCNSRGSSWYFGTPQDYWGQGTQVTVSS
notes: as for B1
As to B6, the binding result in the assay with GFP-tagged MET6 is listed as “binds”.

B7: CA18504 (VHH)
VHH: QVQLVESGGGLVQPGGSLTLSCAGSGRAFDSIAMGWFRQAPGKEREFVAAISWNGVSAYYADSVKGRFTISRDNAKNTVHLQMNSLQSDDTAVYYCHADNSWGQGTQVTVSS
notes: as for B1
As to B7, in the assay with GFP-tagged HSP104, the binding result is given as “binds”.

B8: CA18510 (VHH)
VHH: QVQLVESGGGLVEAGGSLRLSCAASGRTFSSYAMGWFRQAPGKEREFVAAISWSGGSTYYADSVKGRFTISRDNAKNTVYLQMNSLKPEDTAVYYCAAPTAYHYSTTRDEYDSWGQGTQVTVSS
notes: as for B1
Regarding B8, the binding result with GFP-tagged SOD1 is “binds”.

B9: CA17938 (VHH)
VHH: QVQLVESGGGLVQPGGSLRLSCAASGFTLDTWAIGWFRQVPGKDREGAACISSEPSSTYYGEFVNGRFTISRDSAKSTVYLQMNDLKPEDTAVYYCSADRLSAYCSGSGGWGQGTQVTVSS
notes: as for B1
As to B9, the binding result in the assay with GFP-tagged ENO1 is recorded as “binds”.
